This passage reports binding result and binding results from publication PMC7755780, “Tetrachloroethene respiration in Sulfurospirillum species is regulated by a two‐component system as unraveled by comparative genomics, transcriptomics, and regulator binding studies”.

Sequences and labels used below:
B1: ppceAB minimum 70-bp fragment (dsDNA)
DNA 1: ATTATTTTAAAATTAAAATCTATATCTTTCCTATAACAAAGCTATAACTTTTGTATATCATTCTTAAAAT
DNA 2: ATTTTAAGAATGATATACAAAAGTTATAGCTTTGTTATAGGAAAGATATAGATTTTAATTTTAAAATAAT

The first data set has as its target T1, RR2 (PceP), OmpR-family response regulator of TCS2 (Sulfurospirillum halorespirans, UniProt A0A1D7TJV3 1-223).
T1 sequence: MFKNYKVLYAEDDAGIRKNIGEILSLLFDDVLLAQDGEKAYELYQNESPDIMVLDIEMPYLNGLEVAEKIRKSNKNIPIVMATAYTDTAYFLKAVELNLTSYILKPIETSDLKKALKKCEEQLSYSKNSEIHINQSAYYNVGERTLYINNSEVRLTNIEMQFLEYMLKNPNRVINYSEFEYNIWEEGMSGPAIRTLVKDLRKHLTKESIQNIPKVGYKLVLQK
In words: EMSA; minimum binding fragment; 30 or 60 pmol RR2; EMSA: 10 mM HEPES pH 7.6, 2 mM MgCl2, 200 mM KCl, 0.1 mM EDTA, 5 mM DTT, 10% glycerol, 50 ug/ul Ficoll 70, 250 ng poly(dI/dC), 2.5 pmol DNA in 15 ul, room temperature 20 min; gel with 30% triethylene glycol in 1x TAE. The conditions noted are these: protein: recombinant; tags: Twin-Strep; chain copies: 2; label: 6-FAM; blunt. (In general: Mobility shift assays separate free from complexed probe on a gel.)
B1: the binding result is listed as “binds”.

Another data set has as its target T2, RR2 (PceP), OmpR-family response regulator of TCS2 (Sulfurospirillum halorespirans (DSM 13726?)) (UniProt A0A1D7TJV3).
T2 sequence: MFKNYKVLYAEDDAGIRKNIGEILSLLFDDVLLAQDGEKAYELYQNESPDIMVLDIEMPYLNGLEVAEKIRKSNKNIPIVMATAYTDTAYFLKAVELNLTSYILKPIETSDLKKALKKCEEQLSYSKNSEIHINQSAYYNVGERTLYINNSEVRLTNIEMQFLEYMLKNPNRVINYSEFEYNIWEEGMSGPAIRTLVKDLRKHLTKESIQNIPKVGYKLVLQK
Nature of the data set: EMSA. The conditions noted are these: EMSA: 10 mM HEPES pH 7.6, 2 mM MgCl2, 200 mM KCl, 0.1 mM EDTA, 5 mM DTT, 10% glycerol, 50 ug/ul Ficoll 70, 250 ng poly(dI/dC), 2.5 pmol DNA in 15 ul, room ….
Regarding “TCTATCAGATATTTTGTTAAAAATTAACTTAAAAGAGTAAAAATTATCTATTTAATAGTTACCCTATATTTCACCTATAAGTTAC (double strand) [pTCS2/SHALO_1504 f9 (lacks repeat closest to SHALO_1504 TSS)]”, the binding entry is “no binding”.
On to “CATTAAATTCTTAATTACATCATTATATCACAAAAAAGGCAAGGAATGATAAAAAAGTTTTATCATCTAAGTGAAGTATTAGACAATATCATATAATTAAATAGTTAAAGTAGTATAAATAAACCGTAAAATATGCAAATAACTGCATTTATAAGCTAATATTAATAAAATATACAA (double strand) [p1552 promoter (phage CI repressor superfamily gene)]”, for which the binding result is “no binding”.
Consider “TTCACCTATAAGTTACCTATAAATATTCATAAAATTCAAGGTTCTCTCTTTATTGCACACAAAGTTACTACAAGTTTTATGTACT (double strand) [pTCS2/SHALO_1504 f2 (first CCTATA incomplete)]”, for which the binding entry is “binds more weakly”.
As to “CATGTGTGAACCTATCCTATAGTTTATAACTATGATTCTATCAGATATTTTGTTAAAAATTAACTTAAAAGAGTAAAAATTATCTATTTAATAGTTACCCTATATTTCACCTATAAGTTACCTATAAATATTCATAAAATTCAAGGTTCTCTCTTTATTGCACACAAAGTTACTACAAGTTTTATGTACT (double strand) [pTCS2/SHALO_1504 intergenic region (pTCS2)]”, the binding result is listed as “binds”.
With “CATATTCTATCCTTATTTTTAAAATATTTAATTATTATAAATGTAAGTATAGAAAATAATTATAGGTTGTTTGTAGATAATAATAATTTTTCTACTAATTCTTTAATCATTAAATAATATTCAGTAGTATTTCTATCTATCTCGATGCTCAAAAAAACACCATCAATTCTATCAATATCTACATCTATAACTTTTTCTTAA (double strand) [p1494 (ahpD-like gene promoter)]”, the binding entry is “binds more weakly”.
The same measure, in the same setting: to “CTGCATAGAGTATTGTATAAGAAGCGAGCATGTTAAATCCCTGAAATTTTATGAATAATGTACGTATTATAAAAAAAGAAATATAGAACTTGTAGATAAAAAATATTTTCCTTCTATTTTAGTTATACAACGGTTGCATAAGTTTTAAATACAATTTTCATAATAAGTCAGATGTTAAATGGTTGTACTTGGGATCATTTAATTAAAGGTTACAAGAAGGTTTAAAATCATTATCATGATTGTATGGTAGATGATTTTTTAAGGAGTAAATATG (double strand) [prdhAB promoter]” belongs “binds more weakly”.
For the molecule “ATTGTCTGATATATTGACAAAATCTTTATAAAATCTCCAAAAATATAAAAAAAGAAAAGTATTTACTTATTACTTCGTAAATATTATTAACTTTCATTATTTTAAAATTAAAATCTATATCTTTCCTATAACAAAGCTATAACTTTTGTATATCATTCTTAAAATGTGAAATTAATTCATAAACACATTAAAAAATAAATAACTGTACTTGGGGTTATTTATAAAAGGTTACAAGAAGGTTTGAATACCACTGTGTAAGTTGTTACTCTTGGTATTTTTTAAGGAGGAAGTATG (double strand) [ppceAB promoter]”, the binding entry is reported as “binds”.
